Stoichiometry N data for 2 substances are collected here from paper PMC4032163.

Assay [1] addresses BG505 SOSIP.664 gp140 trimer (HIV-1 subtype A transmitted/founder virus BG505). Put plainly: native gel or EMSA; BN-PAGE, Coomassie blue staining, of 2G12-affinity-purified Env proteins and of SEC-purified trimers from stable cell lines and transient transfection. On the technique in general: In EMSA bound probe runs differently from free probe, usually more slowly.
The target in assay [2] is uncleaved CZA97.012 gp140 (HIV-1 subtype C, CZA97.012 | not stated). Put plainly: SEC. (Size exclusion chromatography separates by hydrodynamic size, large species first.)

On to BG505 SOSIP.664 gp140 trimer (complex), for which the stoichiometry N in assay [1] came to 3.

The substance uncleaved CZA97.012 gp140 came in with a stoichiometry N in assay [2] of 3.

For orientation: stoichiometry N means the number of molecules, sites or subunits per partner or assembly.
